Measured values reported in US20120045816A1, “Novel Glycosylated Polypeptides” (Sialix, Inc., priority 2008, published 2012).

Columns and labels:
[1] = tested on: anti-Neu5Gc antibodies in human serum; assay: CIC-C1q binding assay, immune complex formation in whole human serum; conditions: 40 μg antibody in 100 μl serum, FIG. 1F
Method: CIC-C1q Binding Assay. […] 1:50 dilutions of the mix were applied to human C1 q coated ELISA wells, and incubated for 1 h at 25° C. […] The absorbance was measured at 405 nm. Samples were studied in triplicate.
(§1) Sialic Acid Quantity. The levels of Sialic acids on the therapeutic antibodies (TAbs) Cet and Pan were determined. […] Cet and Pan (1 μg each) were separated by SDS-PAGE and Coomassie stained or blotted (see FIG. 1B). […] The absorbance was measured at 405 nm.

[2] = tested on: affinity-purified chicken anti-Neu5Gc IgY; assay: ELISA detection of Neu5Gc on Cetuximab and Panitumumab; assay type: binding; conditions: 1 μg antibody per well; FIG. 1A
Excerpt: Sialidase Treatment of Cet and Pan. […] Samples were used for ELISA or Western Blots.
ELISA samples were studied at least in triplicate. […] Samples were studied in triplicate.
ELISA We first did ELISA assays using an affinity-purified polyclonal chicken anti-Neu5Gc antibody preparation that is highly mono-specific for Neu5Gc^5, alongside a non-reactive control IgY.

[3] = Sialic acid quantity (DMB-HPLC); assay type: physicochemical
Method: DMB-HPLC. Samples were subjected to base treatment with 0.1 M NaOH (final) at 37° C. for 30 min to remove O-acetyl esters, and the sialic acids were released by acid hydrolysis with 2 M acetic acid (final), at 80° C. for 3 hours. Samples were passed through Microcon-10 columns (20 min, 10000×g; Millipore), derivatized with 1,2-diamino-4,5-methyl dioxybenzene (DMB), and analyzed by HPLC as described^9 in Hara et al., 1986, J. Chromatography 377:111-119. Measured values of non acid-treated controls (free sialic acids) were subtracted.
as §1

[4] = tested on: anti-Neu5Gc antibodies from whole human sera; assay: Direct binding of anti-Neu5Gc antibodies from whole human sera to Fab fragments (ELISA); conditions: serum S34; Fab fragments 1 μg/well; FIG. 2C
Method: Direct binding of anti-Neu5Gc antibodies from whole human sera to the glycosylated polypeptides, Cet and Pan, was evaluated. […] Fab fragments (1 μg/well) were used as target molecules in ELISA. Sialic acid specific binding was determined with sodium metaperiodate treatment. Wells were then blocked and incubated with human sera (S30 and S34 with low and high anti-Neu5Gc IgG titers, respectively, from Ref. 7).

Human 293T cells = assay: Reduction of Neu5Gc contamination in 293T human kidney cells by Neu5Ac chase; assay type: cell-based; conditions: 5 mM Neu5Ac chase after 5 mM Neu5Gc for 3 days; HPLC; FIG. 3A-B
Method: Reduction of Neu5Gc Contamination in Glycosylated Polypeptides in 293T Human Kidney Cells. 293T human kidney cells were grown in DME supplemented with 10% FCS. Cells were lifted from culture plate using 20 mM EDTA in PBS and allowed to grow to 50% confluence. Buffered 100 mM Neu5Gc was added to the culture in duplicate at a final 5 mM concentration, and the cells were grown in this supplemented media for 3 days. At the end of this Neu5Gc pulse, the cells were once again lifted using 20 mM EDTA in PBS, pelleted, washed once with PBS to remove any excess Neu5Gc and then suspended in 30 ml of growth medium. Five ml of this cell suspension was added to each of […]. The last aliquot of cell suspension, time “0”, was immediately harvested by pelleting the cells, washing once with PBS, followed by suspending the cells in 1 ml of PBS and transferring to a 1.5 ml microcentrifuge tube. The cells were re-pelleted and frozen until all time points were collected. […]
Free Neu5Ac in Human 293T Cell Culture Medium Reduces Neu5Gc Contamination. […] Cells were harvested as described above, and the Neu5Gc and Neu5Ac content of both the ethanol soluble (FIG. 3A) and ethanol precipitable proteins (FIG. 3B) was analyzed by HPLC. […]

CHO cells = assay: Reduction of Neu5Gc contamination in CHO cells by feeding Neu5Ac; assay type: cell-based, Chinese Hamster; conditions: 5 mM Neu5Ac in medium; DMB-HPLC and Western blot; FIG. 3C-E
Method: Reduction of Neu5Gc Contamination in Glycosylated polypeptides in CHO Cells. A similar approach was taken to CHO cells stably expressing a Siglec-Fc protein in the medium, except that the Neu5Gc pulse was omitted, and the secreted glycoproteins were captured on Protein-A Sepharose beads. The cells were also processed similarly, except that total cell membranes were pelleted by centrifugation. The Sias content of the secreted proteins and cell membranes was determined by acid hydrolysis, DMB derivatization and HPLC. The cell membranes were also studied for NueSGc content by Western-blotting with the chicken anti-Neu5Gc IgY, as described above.
Free Neu5Ac in Non-Human CHO Cell Culture Medium Reduces Neu5Gc Contamination. However, many recombinant glycosylated polypeptides are currently produced in non-human cells, e.g., Chinese Hamster Ovary (CHO) cell lines. Glycosylated polypeptide produced in CHO cells carry small amounts of Neu5Gc^19,5. […] The individually collected media was centrifuged to remove cell debris and adjusted to 5 mM Tris-HCl pH 8. The fusion protein was purified using Protein-A Sepharose. Sialic acid content was determined by DMB-HPLC analysis (FIG. 3C). The area under each peak was obtained and the percent of Neu5Gc in each sample was determined relative to Neu5Ac. Total cell membranes from the same CHO cells were prepared and used for DMB-HPLC analysis (FIG. 3D). […]

Compound	Immune complex formation, low titer human serum ([1]; serum S30)	Immune complex formation, human serum with high levels of anti-Neu5Gc antibodies ([1]; serum S34)	Bound Neu5Gc detected by chicken anti-Neu5Gc IgY (ELISA) [2]	Share of Neu5Gc in the Sias [3] [%]	Sias carried by the antibody [3] [mol/mol]	Mild periodate sensitive binding of serum IgG to Fab fragments, high anti-Neu5Gc titer serum [4]	Effect on Neu5Gc content of cells preloaded with Neu5Gc (Human 293T cells)	Effect on Neu5Gc of membrane glycoproteins and a secreted recombinant protein (CHO cells)
Panitumumab: fully human antibody against the EGF receptor produced in Chinese Hamster Ovary cells	no detectable immune complex formation	no detectable immune complex formation	not on Panitumumab	< 0.1	0.22	not to those of Panitumumab		
CC(=O)N[C@H]1[C@H]([C@H](O)[C@H](O)CO)OC(O)(C(=O)O)C[C@@H]1O (some centres unmarked) [Neu5Ac, N-acetylneuraminic acid]							more rapid disappearance of ethanol-precipitable (glycosidically-bound) Neu5Gc	reduces Neu5Gc in CHO cells
